Assay [1] concerns the target Tag1-LAG3. Nature of the assay: HTRF LAG3/MHC-II; peptide log M -8.81648. In general terms: Time-resolved FRET reads energy transfer from a long-lived donor to a nearby acceptor.
Assay [2] has as its target Tag1-LAG3. Nature of the assay: HTRF LAG3/MHC-II; peptide log M -7.61236.
Assay [3] deals with Tag1-LAG3. Briefly: HTRF LAG3/MHC-II; peptide log M -9.41854.
Assay [4] concerns the target Tag1-LAG3. Briefly: HTRF LAG3/MHC-II; peptide log M -7.0103.
Assay [5] deals with Tag1-LAG3. Nature of the assay: HTRF LAG3/MHC-II; peptide log M -5.20412.
Assay [6] concerns the target Tag1-LAG3. Briefly: HTRF LAG3/MHC-II; peptide log M -4.60206.
The target in assay [7] is Tag1-LAG3. Nature of the assay: HTRF LAG3/MHC-II; peptide log M -4.
Assay [8] deals with Tag1-LAG3. Nature of the assay: HTRF LAG3/MHC-II; peptide log M -5.80618.
Assay [9] concerns the target Tag1-LAG3. Nature of the assay: HTRF LAG3/MHC-II; peptide log M -10.6227.
Assay [10] deals with Tag1-LAG3. Briefly: HTRF LAG3/MHC-II; peptide log M -6.40824.
For assay [11], the target named is Tag1-LAG3. Nature of the assay: HTRF LAG3/MHC-II; peptide log M -8.21442.
Assay [12] deals with Tag1-LAG3. Briefly: HTRF LAG3/MHC-II; peptide log M -10.0206.
In assay [13] the target is T1, human LAG3 expressed on Jurkat T cell line (human, UniProt P18627 23-525).
T1 sequence (looked up): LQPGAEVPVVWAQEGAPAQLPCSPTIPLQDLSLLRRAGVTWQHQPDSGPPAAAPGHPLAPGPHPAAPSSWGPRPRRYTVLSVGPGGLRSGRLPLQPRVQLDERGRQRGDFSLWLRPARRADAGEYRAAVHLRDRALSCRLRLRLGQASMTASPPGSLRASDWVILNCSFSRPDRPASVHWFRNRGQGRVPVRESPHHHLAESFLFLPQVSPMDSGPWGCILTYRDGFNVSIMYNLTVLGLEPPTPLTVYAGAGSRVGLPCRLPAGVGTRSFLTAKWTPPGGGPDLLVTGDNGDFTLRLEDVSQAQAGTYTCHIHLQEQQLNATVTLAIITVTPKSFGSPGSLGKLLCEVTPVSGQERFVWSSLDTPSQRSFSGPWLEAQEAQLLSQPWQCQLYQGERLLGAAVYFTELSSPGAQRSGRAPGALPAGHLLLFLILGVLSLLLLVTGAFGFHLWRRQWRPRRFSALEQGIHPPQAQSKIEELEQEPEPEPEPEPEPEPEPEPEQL
Nature of the assay: cell-based or functional assay.

Values joined by “and” are separate entries in the source; they are usually repeats but may differ in a detail not shown here. Equal entries are not always repeated.

B1: ovalbumin (OVA) peptide (peptide)
peptide: ISQAVHAAHAEINEAGR
With B1, the HTRF ratio is 8720 and 8640 and 8680 with Tag1-LAG3 [1]; 8780 and 8570 and 9020 with Tag1-LAG3 [2]; 8400 and 8790 and 8620 in the assay with Tag1-LAG3 [3]; 8970 and 8380 and 8650 with Tag1-LAG3 [4]; 8620 and 8580 and 9020 in the assay with Tag1-LAG3 [5]; 8470 and 8680 and 8450 in the assay with Tag1-LAG3 [6]. In addition, the HTRF ratio in the assay with Tag1-LAG3 [7] was 8490 and 8910 and 7150; in the assay with Tag1-LAG3 [8] it was 8830 and 9370 and 9180; with Tag1-LAG3 [9], 9090 and 8890 and 8630; in the assay with Tag1-LAG3 [10], 8630 and 9280 and 9190; with Tag1-LAG3 [11], 8620 and 8990 and 9220; in the assay with Tag1-LAG3 [12], 8990 and 8460 and 8360.

B2: LAG3-11 (peptide)
peptide: SAPWEPLHWPEDWWQGTGEW
Turning to B2, the “fold inhibition (fold increase in luciferase activity, RLUs at 100 µM against 0.64 µM)” value in [13] was around 2.8 fold.

B3: LAG3-56 (peptide)
peptide: HIQNWSYWLNQDMMNQQVWKS
For B3, the “fold inhibition (fold increase in luciferase activity, RLUs at 100 µM against 0.64 µM)” value in assay [13] is around 2.2 fold.

For the origin of these results see patent US20200369766A1 (LEIDOS, published 2020).
